Laboratory results from the supplement of paper PMC10567573.

B1: FBF1 (parent)
chain: QLQCSPAELQAELLHSQARLAELE
B2: TRIM39 (parent)
chain: ERDFPCPVCRKTSRYRSLRPNRQL

Variants of: B1
Experiment: protein stability index of a GFP-peptide fusion (GPS, HEK-293T) (PSI 1-6); higher = more stable
Conditions: c terminus: a fixed tail appended
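Note: lentivirally expressed fusions sorted by FACS into six bins by GFP to DsRed ratio, PSI derived from sequencing read proportions per bin multiplied by bin number.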

Variant | protein stability index
LLQCSPAELQAELLHSQARLAELE [Q1L] | 2.62
KLQCSPAELQAELLHSQARLAELE [Q1K] | 2.69
ALQCSPAELQAELLHSQARLAELE [Q1A] | 2.89
GLQCSPAELQAELLHSQARLAELE [Q1G] | 2.77
HLQCSPAELQAELLHSQARLAELE [Q1H] | 3.26
NLQCSPAELQAELLHSQARLAELE [Q1N] | 2.82
TLQCSPAELQAELLHSQARLAELE [Q1T] | 3.33
DLQCSPAELQAELLHSQARLAELE [Q1D] | 3.2
SLQCSPAELQAELLHSQARLAELE [Q1S] | 3.31
ELQCSPAELQAELLHSQARLAELE [Q1E] | 3.2
WLQCSPAELQAELLHSQARLAELE [Q1W] | 2.8
PLQCSPAELQAELLHSQARLAELE [Q1P] | 3.91
VLQCSPAELQAELLHSQARLAELE [Q1V] | 2.41
CLQCSPAELQAELLHSQARLAELE [Q1C] | 2.91
ILQCSPAELQAELLHSQARLAELE [Q1I] | 2.82
YLQCSPAELQAELLHSQARLAELE [Q1Y] | 2.6
MLQCSPAELQAELLHSQARLAELE [Q1M] | 2.64
FLQCSPAELQAELLHSQARLAELE [Q1F] | 2.06

Variant | protein stability index
RLQCSPAELQAELLHSQARLAELE [Q1R] | 2.59
QSQCSPAELQAELLHSQARLAELE [L2S] | 3.96
QDQCSPAELQAELLHSQARLAELE [L2D] | 3.65
QQQCSPAELQAELLHSQARLAELE [L2Q] | 3.85
QTQCSPAELQAELLHSQARLAELE [L2T] | 2.94
QEQCSPAELQAELLHSQARLAELE [L2E] | 4.46
QRQCSPAELQAELLHSQARLAELE [L2R] | 2.59
QKQCSPAELQAELLHSQARLAELE [L2K] | 2.89
QPQCSPAELQAELLHSQARLAELE [L2P] | 4.15
QFQCSPAELQAELLHSQARLAELE [L2F] | 2.83
QHQCSPAELQAELLHSQARLAELE [L2H] | 3.21
QCQCSPAELQAELLHSQARLAELE [L2C] | 2.42
QIQCSPAELQAELLHSQARLAELE [L2I] | 2.82
QVQCSPAELQAELLHSQARLAELE [L2V] | 3.68
QGQCSPAELQAELLHSQARLAELE [L2G] | 3.38
QMQCSPAELQAELLHSQARLAELE [L2M] | 3.61
QNQCSPAELQAELLHSQARLAELE [L2N] | 3.52
QAQCSPAELQAELLHSQARLAELE [L2A] | 3.02

Variants of: B2
Experiment: as above
Conditions: c terminus: a fixed tail appended

Variant | protein stability index
ERDFPCPVCRKTSRQRSLRPNRQL [Y15Q] | 2.52
ERDFPCPVCRKTSRFRSLRPNRQL [Y15F] | 2.31
ERDFPCPVCRKTSRNRSLRPNRQL [Y15N] | 2.31
ERDFPCPVCRKTSRWRSLRPNRQL [Y15W] | 1.95
ERDFPCPVCRKTSRVRSLRPNRQL [Y15V] | 1.64
ERDFPCPVCRKTSRGRSLRPNRQL [Y15G] | 1.83
ERDFPCPVCRKTSRDRSLRPNRQL [Y15D] | 3.02
ERDFPCPVCRKTSRHRSLRPNRQL [Y15H] | 2.68
ERDFPCCVCRKTSRYRSLRPNRQL [P7C] | 1.94
ERDFPCDVCRKTSRYRSLRPNRQL [P7D] | 2.43
ERDFPCNVCRKTSRYRSLRPNRQL [P7N] | 2.19
